According to paper PMC9608704:
Values joined by “and” are separate entries in the source; they are usually repeats but may differ in a detail not shown here. Equal entries are not always repeated.

Target: HLA-B*2704 heavy chain (human)
Experiment: non-reducing SDS-PAGE with Western blot; cell surface proteins of C1R-B*2704 or C1R-B*2704 C67S cells biotinylated, extracted in the presence of iodoacetamide, precipitated by avidin-agarose beads, separated by non-reducing SDS-PAGE and blotted with the BH2 antibody; disulfide-linked oligomers judged by mobility

- stoichiometry N: 2 and 4
Substance: HLA-B*2704 heavy chain (natural protein)
